Measured values from the supplement of paper PMC5998384.

What was measured:
HeLa Kyoto [1] = experiment: solubility in G1/S (NP-40 vs SDS abundance) (log2 ratio); higher = more soluble; settings: cell cycle stage: G1/S
HeLa Kyoto [2] = experiment: melting temperature (median over replicates), in situ; higher = more thermally stable
HeLa Kyoto [3] = experiment: solubility change mitosis vs G1/S (difference of NP-40 vs SDS log2 ratios) (log2 ratio difference); higher = more soluble in mitosis
HeLa Kyoto [4] = experiment: thermal stability score vs G1/S (z-score of summed log2 fold changes over temperatures); higher = more thermally stable than in G1/S
[5] = cell cycle stage: early G1 (4.5 h after nocodazole release)
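Wherever melting temperature (median over replicates), in situ is given: HeLa Kyoto cells synchronized by double thymidine or nocodazole block, proteins quantified by TMT10plex mass spectrometry, three independent biological replicates.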
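Wherever solubility change mitosis vs G1/S (difference of NP-40 vs SDS log2 ratios) is given: synchronized HeLa Kyoto cells (double thymidine block for G1/S, nocodazole release for mitosis), protein amounts in NP-40 versus SDS lysates quantified by mass spectrometry, three biological replicates.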
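Wherever solubility in G1/S (NP-40 vs SDS abundance) is given: HeLa Kyoto cells arrested at G1/S by double thymidine block, proteins quantified by TMT10plex mass spectrometry in mild NP-40 versus SDS extracts, three biological replicates.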
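Wherever thermal stability score vs G1/S (z-score of summed log2 fold changes over temperatures) is given: synchronized HeLa Kyoto cells, proteins quantified by TMT10plex mass spectrometry, three biological replicates, mitosis taken 0.5 h after nocodazole release, G1/S directly after double thymidine block.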

Chain of ALDH16A1 (chain, as listed by the source): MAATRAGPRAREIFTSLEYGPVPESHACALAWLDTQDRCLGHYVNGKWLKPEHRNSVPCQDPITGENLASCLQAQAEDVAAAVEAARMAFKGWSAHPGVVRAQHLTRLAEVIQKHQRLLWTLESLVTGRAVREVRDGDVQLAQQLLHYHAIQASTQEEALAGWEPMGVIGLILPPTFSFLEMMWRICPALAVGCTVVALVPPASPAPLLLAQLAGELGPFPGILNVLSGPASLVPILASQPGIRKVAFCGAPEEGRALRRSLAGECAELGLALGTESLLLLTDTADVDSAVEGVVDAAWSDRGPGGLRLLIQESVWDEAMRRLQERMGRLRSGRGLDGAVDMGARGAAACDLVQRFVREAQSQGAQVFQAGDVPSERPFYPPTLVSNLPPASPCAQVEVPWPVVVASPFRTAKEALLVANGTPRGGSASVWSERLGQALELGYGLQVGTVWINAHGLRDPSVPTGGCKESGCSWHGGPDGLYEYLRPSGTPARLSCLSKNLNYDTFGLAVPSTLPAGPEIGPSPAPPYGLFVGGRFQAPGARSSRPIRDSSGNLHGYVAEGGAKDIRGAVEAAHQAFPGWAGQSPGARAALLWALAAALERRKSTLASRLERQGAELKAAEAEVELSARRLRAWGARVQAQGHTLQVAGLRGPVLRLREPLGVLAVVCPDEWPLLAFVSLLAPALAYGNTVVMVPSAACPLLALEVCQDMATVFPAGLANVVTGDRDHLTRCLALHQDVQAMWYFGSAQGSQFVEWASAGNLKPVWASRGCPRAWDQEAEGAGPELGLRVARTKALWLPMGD

Substance	solubility in G1/S (log2) (HeLa Kyoto [1])	melting temperature (HeLa Kyoto [2]; cell cycle stage: G1/S) [°C]	melting temperature (HeLa Kyoto [2]; cell cycle stage: mitosis) [°C]	solubility change mitosis (log2) (HeLa Kyoto [3])	thermal stability score (HeLa Kyoto [4]; [5])	thermal stability score (HeLa Kyoto [4]; cell cycle stage: mitosis)
MHRKKVDNRIRILIENGVAERQRSLFVVVGDRGKDQVVILHHMLSKATVKARPSVLWCYKKELGFSSHRKKRMRQLQKKIKNGTLNIKQDDPFELFIAATNIRYCYYNETHKILGNTFGMCVLQDFEALTPNLLARTVETVEGGGLVVILLRTMNSLKQLYTVTMDVHSRYRTEAHQDVVGRFNERFILSLASCKKCLVIDDQLNILPISSHVATMEALPPQTPDESLGPSDLELRELKESLQDTQPVGVLVDCCKTLDQAKAVLKFIEGISEKTLRSTVALTAARGRGKSAALGLAIAGAVAFGYSNIFVTSPSPDNLHTLFEFVFKGFDALQYQEHLDYEIIQSLNPEFNKAVIRVNVFREHRQTIQYIHPADAVKLGQAELVVIDEAAAIPLPLVKSLLGPYLVFMASTINGYEGTGRSLSLKLIQQLRQQSAQSQVSTTAENKTTTTARLASARTLYEVSLQESIRYAPGDAVEKWLNDLLCLDCLNITRIVSGCPLPEACELYYVNRDTLFCYHKASEVFLQRLMALYVASHYKNSPNDLQMLSDAPAHHLFCLLPPVPPTQNALPEVLAVIQVCLEGEISRQSILNSLSRGKKASGDLIPWTVSEQFQDPDFGGLSGGRVVRIAVHPDYQGMGYGSRALQLLQMYYEGRFPCLEEKVLETPQEIHTVSSEAVSLLEEVITPRKDLPPLLLKLNERPAERLDYLGVSYGLTPRLLKFWKRAGFVPVYLRQTPNDLTGEHSCIMLKTLTDEDEADQGGWLAAFWKDFRRRFLALLSYQFSTFSPSLALNIIQNRNMGKPAQPALSREELEALFLPYDLKRLEMYSRNMVDYHLIMDMIPAISRIYFLNQLGDLALSAAQSALLLGIGLQHKSVDQLEKEIELPSGQLMGLFNRIIRKVVKLFNEVQEKAIEEQMVAAKDVVMEPTMKTLSDDLDEAAKEFQEKHKKEVGKLKSMDLSEYIIRGDDEEWNEVLNKAGPNASIISLKSDKKRKLEAKQEPKQSKKLKNRETKNKKDMKLKRKK [NAT10]	-2.26	49.8	52.1	0.692	1.83	1.3
MDTPLRRSRRLGGLRPESPESLTSVSRTRRALVEFESNPEETREPGSPPSVQRAGLGSPERPPKTSPGSPRLQQGAGLESPQGQPEPGAASPQRQQDLHLESPQRQPEYSPESPRCQPKPSEEAPKCSQDQGVLASELAQNKEELTPGAPQHQLPPVPGSPEPYPGQQAPGPEPSQPLLELTPRAPGSPRGQHEPSKPPPAGETVTGGFGAKKRKGSSSQAPASKKLNKEELPVIPKGKPKSGRVWKDRSKKRFSQMLQDKPLRTSWQRKMKERQERKLAKDFARHLEEEKERRRQEKKQRRAENLKRRLENERKAEVVQVIRNPAKLKRAKKKQLRSIEKRDTLALLQKQPPQQPAAKI [CCDC86]	-1.03	57.2	54.1	0.956	-0.356	-4.77
MPLNRTLSMSSLPGLEDWEDEFDLENAVLFEVAWEVANKVGGIYTVLQTKAKVTGDEWGDNYFLVGPYTEQGVRTQVELLEAPTPALKRTLDSMNSKGCKVYFGRWLIEGGPLVVLLDVGASAWALERWKGELWDTCNIGVPWYDREANDAVLFGFLTTWFLGEFLAQSEEKPHVVAHFHEWLAGVGLCLCRARRLPVATIFTTHATLLGRYLCAGAVDFYNNLENFNVDKEAGERQIYHRYCMERAAAHCAHVFTTVSQITAIEAQHLLKRKPDIVTPNGLNVKKFSAMHEFQNLHAQSKARIQEFVRGHFYGHLDFNLDKTLYFFIAGRYEFSNKGADVFLEALARLNYLLRVNGSEQTVVAFFIMPARTNNFNVETLKGQAVRKQLWDTANTVKEKFGRKLYESLLVGSLPDMNKMLDKEDFTMMKRAIFATQRQSFPPVCTHNMLDDSSDPILTTIRRIGLFNSSADRVKVIFHPEFLSSTSPLLPVDYEEFVRGCHLGVFPSYYEPWGYTPAECTVMGIPSISTNLSGFGCFMEEHIADPSAYGIYILDRRFRSLDDSCSQLTSFLYSFCQQSRRQRIIQRNRTERLSDLLDWKYLGRYYMSARHMALSKAFPEHFTYEPNEADAAQGYRYPRPASVPPSPSLSRHSSPHQSEDEEDPRNGPLEEDGERYDEDEEAAKDRRNIRAPEWPRRASCTSSTSGSKRNSVDTATSSSLSTPSEPLSPTSSLGEERN [GYS1]	-0.205	54.5	55.2	-0.314	2.32	2.69
MTFYLFGIRSFPKLWKSPYLGLGPGHSYVSLFLADRCGIRNQQRLFSLKTMSPQNTKATNLIAKARYLRKDEGSNKQVYSVPHFFLAGAAKERSQMNSQTEDHALAPVRNTIQLPTQPLNSEEWDKLKEDLKENTGKTSFESWIISQMAGCHSSIDVAKSLLAWVAAKNNGIVSYDLLVKYLYLCVFHMQTSEVIDVFEIMKARYKTLEPRGYSLLIRGLIHSDRWREALLLLEDIKKVITPSKKNYNDCIQGALLHQDVNTAWNLYQELLGHDIVPMLETLKAFFDFGKDIKDDNYSNKLLDILSYLRNNQLYPGESFAHSIKTWFESVPGKQWKGQFTTVRKSGQCSGCGKTIESIQLSPEEYECLKGKIMRDVIDGGDQYRKTTPQELKRFENFIKSRPPFDVVIDGLNVAKMFPKVRESQLLLNVVSQLAKRNLRLLVLGRKHMLRRSSQWSRDEMEEVQKQASCFFADDISEDDPFLLYATLHSGNHCRFITRDLMRDHKACLPDAKTQRLFFKWQQGHQLAIVNRFPGSKLTFQRILSYDTVVQTTGDSWHIPYDEDLVERCSCEVPTKWLCLHQKT [KIAA0391]	0.189	47.8	48.4	-0.118	0.296	1.88
TRPM7	-0.312	51.6	51.4	-0.0119	0.936	0.742
MESGAYGAAKAGGSFDLRRFLTQPQVVARAVCLVFALIVFSCIYGEGYSNAHESKQMYCVFNRNEDACRYGSAIGVLAFLASAFFLVVDAYFPQISNATDRKYLVIGDLLFSALWTFLWFVGFCFLTNQWAVTNPKDVLVGADSVRAAITFSFFSIFSWGVLASLAYQRYKAGVDDFIQNYVDPTPDPNTAYASYPGASVDNYQQPPFTQNAETTEGYQPPPVY [SYNGR2]	0.192	54.9	56.3	-0.171	-2	-3.51
MNNLSFSELCCLFCCPPCPGKIASKLAFLPPDPTYTLMCDESGSRWTLHLSERADWQYSSREKDAIECFMTRTSKGNRIACMFVRCSPNAKYTLLFSHGNAVDLGQMSSFYIGLGSRINCNIFSYDYSGYGASSGKPTEKNLYADIEAAWLALRTRYGIRPENVIIYGQSIGTVPSVDLAARYESAAVILHSPLTSGMRVAFPDTKKTYCFDAFPNIDKISKITSPVLIIHGTEDEVIDFSHGLALFERCQRPVEPLWVEGAGHNDVELYGQYLERLKQFVSQELVNL [ABHD17B]	0.0257	54.9	54.3	-0.163	-2.83	-2.95
MGLYAAAAGVLAGVESRQGSIKGLVYSSNFQNVKQLYALVCETQRYSAVLDAVIASAGLLRAEKKLRPHLAKVLVYELLLGKGFRGGGGRWKALLGRHQARLKAELARLKVHRGVSRNEDLLEVGSRPGPASQLPRFVRVNTLKTCSDDVVDYFKRQGFSYQGRASSLDDLRALKGKHFLLDPLMPELLVFPAQTDLHEHPLYRAGHLILQDRASCLPAMLLDPPPGSHVIDACAAPGNKTSHLAALLKNQGKIFAFDLDAKRLASMATLLARAGVSCCELAEEDFLAVSPSDPRYHEVHYILLDPSCSGSGMPSRQLEEPGAGTPSPVRLHALAGFQQRALCHALTFPSLQRLVYSTCSLCQEENEDVVRDALQQNPGAFRLAPALPAWPHRGLSTFPGAEHCLRASPETTLSSGFFVAVIERVEVPR [NSUN5]	-0.194	48.7	50.2	0.282	0.348	-0.0976
ALDH16A1	0.152	58	56.3	-0.043	-4.57	-4.01
MASTTSTKKMMEEATCSICLSLMTNPVSINCGHSYCHLCITDFFKNPSQKQLRQETFCCPQCRAPFHMDSLRPNKQLGSLIEALKETDQEMSCEEHGEQFHLFCEDEGQLICWRCERAPQHKGHTTALVEDVCQGYKEKLQKAVTKLKQLEDRCTEQKLSTAMRITKWKEKVQIQRQKIRSDFKNLQCFLHEEEKSYLWRLEKEEQQTLSRLRDYEAGLGLKSNELKSHILELEEKCQGSAQKLLQNVNDTLSRSWAVKLETSEAVSLELHTMCNVSKLYFDVKKMLRSHQVSVTLDPDTAHHELILSEDRRQVTRGYTQENQDTSSRRFTAFPCVLGCEGFTSGRRYFEVDVGEGTGWDLGVCMENVQRGTGMKQEPQSGFWTLRLCKKKGYVALTSPPTSLHLHEQPLLVGIFLDYEAGVVSFYNGNTGCHIFTFPKASFSDTLRPYFQVYQYSPLFLPPPGD [TRIM38]	-0.661	–	48.8	0.155	-0.0637	-0.487
MMKLRHKNKKPGEGSKGHKKISWPYPQPAKQNGKKATSKVPSAPHFVHPNDHANREAELKKKWVEEMREKQQAAREQERQKRRTIESYCQDVLRRQEEFEHKEEVLQELNMFPQLDDEATRKAYYKEFRKVVEYSDVILEVLDARDPLGCRCFQMEEAVLRAQGNKKLVLVLNKIDLVPKEVVEKWLDYLRNELPTVAFKASTQHQVKNLNRCSVPVDQASESLLKSKACFGAENLMRVLGNYCRLGEVRTHIRVGVVGLPNVGKSSLINSLKRSRACSVGAVPGITKFMQEVYLDKFIRLLDAPGIVPGPNSEVGTILRNCVHVQKLADPVTPVETILQRCNLEEISNYYGVSGFQTTEHFLTAVAHRLGKKKKGGLYSQEQAAKAVLADWVSGKISFYIPPPATHTLPTHLSAEIVKEMTEVFDIEDTEQANEDTMECLATGESDELLGDTDPLEMEIKLLHSPMTKIADAIENKTTVYKIGDLTGYCTNPNRHQMGWAKRNVDHRPKSNSMVDVCSVDRRSVLQRIMETDPLQQGQALASALKNKKKMQKRADKIASKLSDSMMSALDLSGNADDGVGD [GNL3L]	-0.846	48.1	50.3	0.334	3.18	4.42
MAAYKLVLIRHGESAWNLENRFSGWYDADLSPAGHEEAKRGGQALRDAGYEFDICFTSVQKRAIRTLWTVLDAIDQMWLPVVRTWRLNERHYGGLTGLNKAETAAKHGEAQVKIWRRSYDVPPPPMEPDHPFYSNISKDRRYADLTEDQLPSCESLKDTIARALPFWNEEIVPQIKEGKRVLIAAHGNSLRGIVKHLEGLSEEAIMELNLPTGIPIVYELDKNLKPIKPMQFLGDEETVRKAMEAVAAQGKAKK [PGAM1]	0.324	55.7	57.8	-0.15	-0.0829	-2.07
MASEQDVRARLQRAGQEHLLRFWAELAPEPRAALLAELALLEPEALREHCRRAAEACARPHGPPPDLAARLRPLPPERVGRASRSDPETRRRWEEEGFRQISLNKVAVLLLAGGQGTRLGVTYPKGMYRVGLPSRKTLYQLQAERIRRVEQLAGERHGTRCTVPWYVMTSEFTLGPTAEFFREHNFFHLDPANVVMFEQRLLPAVTFDGKVILERKDKVAMAPDGNGGLYCALEDHKILEDMERRGVEFVHVYCVDNILVRLADPVFIGFCVLQGADCGAKVVEKAYPEEPVGVVCQVDGVPQVVEYSEISPETAQLRASDGSLLYNAGNICNHFFTRGFLKAVTREFEPLLKPHVAVKKVPYVDEEGNLVKPLKPNGIKMEKFVFDVFRFAKNFAALEVLREEEFSPLKNAEPADRDSPRTARQALLTQHYRWALRAGARFLDAHGAWLPELPSLPPNGDPPAICEISPLVSYSGEGLEVYLQGREFQSPLILDEDQAREPQLQES [UAP1L1]	0.127	52.3	53.1	-0.0981	-0.582	-0.781
